Article doi:10.1101/2021.09.21.461216 (bioRxiv, 2021)

Molecular target: GST tagged constitutively activated K-Ras4B (GST-K-RasV12) (UniProt P01116-2 1-188, V12)
Test: pull-down

fold selectivity for K-Ras over H-Ras: ~7 fold
B1: BRI3BP domain identified in the two-hybrid assay, overexpressed in mammalian cells (domain or fragment, UniProt Q8BXV2 85-253, looked up)
chain: RFVQGVDMFLETLWKVWMELLEVLGLDVSNLSQYFSPASVSNSPTRALVLVGVVLLAYWFLSLTLGFTFSLLHLVFGRFFWLVRVILFSMSCVYILHKYEGEPEHAVLPLCVVVAIYFMTGPMGYWRGSPGGLCSPSVEEKLEHLENQVRLLNIRLNRVLENLDRSKDK
